The labels stand for the following.
T1: 14-3-3ζ nhpSer58 with a FLAG tag at its N-terminus (Homo sapiens (Human), UniProt P63104 1-245)
T1 sequence: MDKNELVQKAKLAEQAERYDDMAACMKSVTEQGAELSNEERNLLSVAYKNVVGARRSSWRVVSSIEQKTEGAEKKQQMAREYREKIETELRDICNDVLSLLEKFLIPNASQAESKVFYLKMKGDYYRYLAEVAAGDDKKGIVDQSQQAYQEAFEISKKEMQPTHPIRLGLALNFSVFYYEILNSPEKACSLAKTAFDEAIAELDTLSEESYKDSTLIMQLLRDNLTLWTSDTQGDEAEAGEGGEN

B1: 14-3-3ζ S58E (other)
chain: T1 sequence with S58E
notes: also called S58E phosphomimetic; 14-3-3ζ with glutamate at residue 58
B2: 14-3-3 protein gamma [OS = Homo sapiens] (other, UniProt P61981 1-247, looked up)
chain: MVDREQLVQKARLAEQAERYDDMAAAMKNVTELNEPLSNEERNLLSVAYKNVVGARRSSWRVISSIEQKTSADGNEKKIEMVRAYREKIEKELEAVCQDVLSLLDNYLIKNCSETQYESKVFYLKMKGDYYRYLAEVATGEKRATVVESSEKAYSEAHEISKEHMQPTHPIRLGLALNYSVFYYEIQNAPEQACHLAKTAFDDAIAELDTLNEDSYKDSTLIMQLLRDNLTLWTSDQQDDDGGEGNN
B3: 2-amino-3-ketobutyrate coenzyme A ligase, mitochondrial [OS = Homo sapiens] (other, UniProt O75600 22-419, looked up)
chain: SALAQLRGILEGELEGIRGAGTWKSERVITSRQGPHIRVDGVSGGILNFCANNYLGLSSHPEVIQAGLQALEEFGAGLSSVRFICGTQSIHKNLEAKIARFHQREDAILYPSCYDANAGLFEALLTPEDAVLSDELNHASIIDGIRLCKAHKYRYRHLDMADLEAKLQEAQKHRLRLVATDGAFSMDGDIAPLQEICCLASRYGALVFMDECHATGFLGPTGRGTDELLGVMDQVTIINSTLGKALGGASGGYTTGPGPLVSLLRQRARPYLFSNSLPPAVVGCASKALDLLMGSNTIVQSMAAKTQRFRSKMEAAGFTISGASHPICPVMLGDARLASRMADDMLKRGIFVIGFSYPVVPKGKARIRVQISAVHSEEDIDRCVEAFVEVGRLHGALP
B4: Atherin [OS = Homo sapiens] (other, UniProt Q6SPF0 1-538, looked up)
chain: MAGPPALPPPETAAAATTAAAASSSAASPHYQEWILDTIDSLRSRKARPDLERICRMVRRRHGPEPERTRAELEKLIQQRAVLRVSYKGSISYRNAARVQPPRRGATPPAPPRAPRGAPAAAAAAAPPPTPAPPPPPAPVAAAAPARAPRAAAAAATAPPSPGPAQPGPRAQRAAPLAAPPPAPAAPPAVAPPAGPRRAPPPAVAAREPPLPPPPQPPAPPQQQQPPPPQPQPPPEGGAVRAGGAARPVSLREVVRYLGGSGGAGGRLTRGRVQGLLEEEAAARGRLERTRLGALALPRGDRPGRAPPAASARPSRSKRGGEERVLEKEEEEDDDEDEDEEDDVSEGSEVPESDRPAGAQHHQLNGERGPQSAKERVKEWTPCGPHQGQDEGRGPAPGSGTRQVFSMAAMNKEGGTASVATGPDSPSPVPLPPGKPALPGADGTPFGCPPGRKEKPSDPVEWTVMDVVEYFTEAGFPEQATAFQEQEIDGKSLLLMQRTDVLTGLSIRLGPALKIYEHHIKVLQQGHFEDDDPDGFLG
B5: Cell division cycle 5-like protein [OS = Homo sapiens] (other, UniProt Q99459 1-802, looked up)
chain: MPRIMIKGGVWRNTEDEILKAAVMKYGKNQWSRIASLLHRKSAKQCKARWYEWLDPSIKKTEWSREEEEKLLHLAKLMPTQWRTIAPIIGRTAAQCLEHYEFLLDKAAQRDNEEETTDDPRKLKPGEIDPNPETKPARPDPIDMDEDELEMLSEARARLANTQGKKAKRKAREKQLEEARRLAALQKRRELRAAGIEIQKKRKRKRGVDYNAEIPFEKKPALGFYDTSEENYQALDADFRKLRQQDLDGELRSEKEGRDRKKDKQHLKRKKESDLPSAILQTSGVSEFTKKRSKLVLPAPQISDAELQEVVKVGQASEIARQTAEESGITNSASSTLLSEYNVTNNSVALRTPRTPASQDRILQEAQNLMALTNVDTPLKGGLNTPLHESDFSGVTPQRQVVQTPNTVLSTPFRTPSNGAEGLTPRSGTTPKPVINSTPGRTPLRDKLNINPEDGMADYSDPSYVKQMERESREHLRLGLLGLPAPKNDFEIVLPENAEKELEEREIDDTYIEDAADVDARKQAIRDAERVKEMKRMHKAVQKDLPRPSEVNETILRPLNVEPPLTDLQKSEELIKKEMITMLHYDLLHHPYEPSGNKKGKTVGFGTNNSEHITYLEHNPYEKFSKEELKKAQDVLVQEMEVVKQGMSHGELSSEAYNQVWEECYSQVLYLPGQSRYTRANLASKKDRIESLEKRLEINRGHMTTEAKRAAKMEKKMKILLGGYQSRAMGLMKQLNDLWDQIEQAHLELRTFEELKKHEDSAIPRRLECLKEDVQRQQEREKELQHRYADLLLEKETLKSKF
B6: 14-3-3 protein eta [OS = Homo sapiens] (other, UniProt Q04917 2-246, looked up)
chain: GDREQLLQRARLAEQAERYDDMASAMKAVTELNEPLSNEDRNLLSVAYKNVVGARRSSWRVISSIEQKTMADGNEKKLEKVKAYREKIEKELETVCNDVLSLLDKFLIKNCNDFQYESKVFYLKMKGDYYRYLAEVASGEKKNSVVEASEAAYKEAFEISKEQMQPTHPIRLGLALNFSVFYYEIQNAPEQACLLAKQAFDDAIAELDTLNEDSYKDSTLIMQLLRDNLTLWTSDQQDEEAGEGN
B7: 14-3-3 protein beta/alpha [OS = Homo sapiens] (other, UniProt P31946 1-246, looked up)
chain: MTMDKSELVQKAKLAEQAERYDDMAAAMKAVTEQGHELSNEERNLLSVAYKNVVGARRSSWRVISSIEQKTERNEKKQQMGKEYREKIEAELQDICNDVLELLDKYLIPNATQPESKVFYLKMKGDYFRYLSEVASGDNKQTTVSNSQQAYQEAFEISKKEMQPTHPIRLGLALNFSVFYYEILNSPEKACSLAKTAFDEAIAELDTLNEESYKDSTLIMQLLRDNLTLWTSENQGDEGDAGEGEN
B8: Pre-mRNA-splicing factor SLU7 [OS = Homo sapiens] (other, UniProt O95391 2-586, looked up)
chain: SATVVDAVNAAPLSGSKEMSLEEPKKMTREDWRKKKELEEQRKLGNAPAEVDEEGKDINPHIPQYISSVPWYIDPSKRPTLKHQRPQPEKQKQFSSSGEWYKRGVKENSIITKYRKGACENCGAMTHKKKDCFERPRRVGAKFTGTNIAPDEHVQPQLMFDYDGKRDRWNGYNPEEHMKIVEEYAKVDLAKRTLKAQKLQEELASGKLVEQANSPKHQWGEEEPNSQMEKDHNSEDEDEDKYADDIDMPGQNFDSKRRITVRNLRIREDIAKYLRNLDPNSAYYDPKTRAMRENPYANAGKNPDEVSYAGDNFVRYTGDTISMAQTQLFAWEAYDKGSEVHLQADPTKLELLYKSFKVKKEDFKEQQKESILEKYGGQEHLDAPPAELLLAQTEDYVEYSRHGTVIKGQERAVACSKYEEDVKIHNHTHIWGSYWKEGRWGYKCCHSFFKYSYCTGEAGKEIVNSEECIINEITGEESVKKPQTLMELHQEKLKEEKKKKKKKKKKHRKSSSDSDDEEKKHEKLKKALNAEEARLLHVKETMQIDERKRPYNSMYETREPTEEEMEAYRMKRQRPDDPMASFLGQ
B9: Transformer-2 protein homolog alpha [OS = Homo sapiens] (other, UniProt Q13595 2-282, looked up)
chain: SDVEENNFEGRESRSQSKSPTGTPARVKSESRSGSRSPSRVSKHSESHSRSRSKSRSRSRRHSHRRYTRSRSHSHSHRRRSRSRSYTPEYRRRRSRSHSPMSNRRRHTGSRANPDPNTCLGVFGLSLYTTERDLREVFSRYGPLSGVNVVYDQRTGRSRGFAFVYFERIDDSKEAMERANGMELDGRRIRVDYSITKRAHTPTPGIYMGRPTHSGGGGGGGGGGGGGGGGRRRDSYYDRGYDRGYDRYEDYDYRYRRRSPSPYYSRYRSRSRSRSYSPRRY

Positions count from the first letter of the chain named. Numbers in names are those of the source.

One data set concerns the molecule itself. Put plainly: SEC-MALS (homodimer).
Source text: 14-3-3 dimerization can be regulated by phosphorylation of a serine residue at the dimer interface, e.g., serine residue 58 (Ser58).
Turning to B1, the binding result is on record as “binds”.

Another data set deals with T1, 14-3-3ζ nhpSer58 with a FLAG tag at its ….
Test: not given
In turn, B2 had an FC of 0.0531 fold.
Still for that read-out and setting: for B3 the value was 0.0267 fold.
B4: the FC was 0.0524 fold.
On to B5, for which the FC came out at 0.0607 fold.
Molecule B6 displayed an FC of 0.0561 fold.
Turning to B7, the FC worked out at 0.0486 fold.
In turn, B8 yielded an FC of 0.0628 fold.
B9 had an FC of 0.0906 fold.

These data come from US20240391961A1 (OREGON STATE UNIVERSITY, published 2024).
